Experimental data as given in patent publication US20050119464.

What was measured:
[1] = molecular target: Fc-fragment generated by papain cleavage, including 12 amino acids of the hinge region
[2] = molecular target: T1, H-kininogen, P01042
T1 chain: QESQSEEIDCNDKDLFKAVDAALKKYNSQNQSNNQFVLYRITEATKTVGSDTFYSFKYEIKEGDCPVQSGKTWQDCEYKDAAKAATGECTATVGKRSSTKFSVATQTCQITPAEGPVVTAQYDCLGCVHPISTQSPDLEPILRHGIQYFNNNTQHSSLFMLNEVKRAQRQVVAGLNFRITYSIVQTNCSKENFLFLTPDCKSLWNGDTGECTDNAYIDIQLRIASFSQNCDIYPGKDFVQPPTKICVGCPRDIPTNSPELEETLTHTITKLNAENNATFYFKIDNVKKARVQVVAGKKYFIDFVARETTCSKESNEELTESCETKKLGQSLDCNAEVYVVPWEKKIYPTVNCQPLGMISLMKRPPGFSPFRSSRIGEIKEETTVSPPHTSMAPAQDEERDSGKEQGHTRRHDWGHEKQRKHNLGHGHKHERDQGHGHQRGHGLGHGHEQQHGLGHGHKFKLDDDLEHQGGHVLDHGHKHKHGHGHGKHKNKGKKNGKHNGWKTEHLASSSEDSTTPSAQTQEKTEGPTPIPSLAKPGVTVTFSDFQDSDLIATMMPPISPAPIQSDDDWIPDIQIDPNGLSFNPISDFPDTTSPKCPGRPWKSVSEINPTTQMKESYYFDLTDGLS

[3] = molecular target: T2, Z-LVG-CHN2
T2 chain: LVG

[4] = molecular target: albumin, P02768
[5] = molecular target: T3, antimicrobial peptide LL-37, P49913
T3 chain: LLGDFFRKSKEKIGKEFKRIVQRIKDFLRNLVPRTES

[6] = molecular target: aprotinin, P00974
[7] = molecular target: T4, cystatin C from chicken, P01038
T4 chain: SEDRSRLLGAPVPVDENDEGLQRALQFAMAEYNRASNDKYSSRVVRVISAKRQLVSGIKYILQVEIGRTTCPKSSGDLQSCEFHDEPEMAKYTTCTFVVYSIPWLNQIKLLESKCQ

[8] = molecular target: T5, cystatin C from mouse, P21460
T5 chain: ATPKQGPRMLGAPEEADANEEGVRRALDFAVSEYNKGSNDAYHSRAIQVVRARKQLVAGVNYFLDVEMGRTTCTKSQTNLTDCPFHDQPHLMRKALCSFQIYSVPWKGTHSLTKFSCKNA

[9] = molecular target: T6, cystatin C from rat, P14841
T6 chain: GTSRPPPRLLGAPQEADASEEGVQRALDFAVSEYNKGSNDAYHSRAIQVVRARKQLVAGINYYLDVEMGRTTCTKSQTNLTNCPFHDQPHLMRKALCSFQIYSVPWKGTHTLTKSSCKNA

[10] = molecular target: T7, cystatin C, P01034
T7 chain: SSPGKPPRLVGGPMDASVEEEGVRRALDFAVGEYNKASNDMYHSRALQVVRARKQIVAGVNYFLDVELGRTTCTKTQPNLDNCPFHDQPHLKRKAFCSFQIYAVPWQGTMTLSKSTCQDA

[11] = molecular target: T8, cystatin D, P28325
T8 chain: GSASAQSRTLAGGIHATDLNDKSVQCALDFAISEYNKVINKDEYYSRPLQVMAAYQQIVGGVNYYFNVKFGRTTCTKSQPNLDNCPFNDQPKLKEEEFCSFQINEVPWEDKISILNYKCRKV

[12] = molecular target: T9, fibrinogen, P02671
T9 chain 1: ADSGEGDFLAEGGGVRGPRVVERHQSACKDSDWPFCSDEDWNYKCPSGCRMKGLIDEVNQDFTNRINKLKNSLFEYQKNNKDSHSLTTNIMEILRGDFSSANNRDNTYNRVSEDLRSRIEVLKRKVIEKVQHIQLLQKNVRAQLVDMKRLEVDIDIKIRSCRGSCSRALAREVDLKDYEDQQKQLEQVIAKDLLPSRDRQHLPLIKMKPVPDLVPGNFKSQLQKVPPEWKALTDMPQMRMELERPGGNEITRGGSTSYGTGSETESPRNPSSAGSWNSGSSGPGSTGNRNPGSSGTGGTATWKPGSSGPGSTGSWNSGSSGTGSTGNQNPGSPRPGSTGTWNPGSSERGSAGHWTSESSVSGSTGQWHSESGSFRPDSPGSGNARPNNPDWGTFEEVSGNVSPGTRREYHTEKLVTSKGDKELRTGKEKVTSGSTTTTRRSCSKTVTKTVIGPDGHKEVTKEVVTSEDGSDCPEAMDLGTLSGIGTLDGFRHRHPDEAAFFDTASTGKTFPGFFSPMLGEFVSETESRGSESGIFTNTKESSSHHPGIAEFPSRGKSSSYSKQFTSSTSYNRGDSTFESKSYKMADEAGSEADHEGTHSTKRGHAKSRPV
T9 chain 2: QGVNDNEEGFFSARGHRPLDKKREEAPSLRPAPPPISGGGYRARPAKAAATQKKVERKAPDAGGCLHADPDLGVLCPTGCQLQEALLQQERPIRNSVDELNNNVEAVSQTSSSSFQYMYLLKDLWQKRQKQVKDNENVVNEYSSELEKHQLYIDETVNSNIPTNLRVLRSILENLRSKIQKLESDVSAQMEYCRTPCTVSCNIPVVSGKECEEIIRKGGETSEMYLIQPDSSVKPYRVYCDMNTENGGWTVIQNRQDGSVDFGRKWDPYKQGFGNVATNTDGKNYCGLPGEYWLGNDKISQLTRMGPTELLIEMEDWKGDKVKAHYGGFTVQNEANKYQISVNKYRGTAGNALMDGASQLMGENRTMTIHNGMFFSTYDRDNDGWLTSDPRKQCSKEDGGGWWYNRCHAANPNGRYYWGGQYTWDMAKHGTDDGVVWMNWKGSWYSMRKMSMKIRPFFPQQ
T9 chain 3: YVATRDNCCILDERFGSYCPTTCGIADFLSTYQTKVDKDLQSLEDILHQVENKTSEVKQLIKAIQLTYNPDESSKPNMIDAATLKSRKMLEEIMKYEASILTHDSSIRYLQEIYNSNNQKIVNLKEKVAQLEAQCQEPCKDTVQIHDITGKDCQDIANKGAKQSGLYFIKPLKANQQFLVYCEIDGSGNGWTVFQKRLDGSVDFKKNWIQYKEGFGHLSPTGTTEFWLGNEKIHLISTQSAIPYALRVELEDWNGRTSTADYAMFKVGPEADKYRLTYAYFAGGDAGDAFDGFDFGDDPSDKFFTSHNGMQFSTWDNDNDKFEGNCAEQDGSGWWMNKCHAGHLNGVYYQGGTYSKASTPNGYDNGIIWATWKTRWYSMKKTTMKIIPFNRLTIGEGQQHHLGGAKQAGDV

[13] = molecular target: fibronectin, P02751
[14] = molecular target: lactoferrin, P02788
[15] = molecular target: laminin
[16] = molecular target: synthetic peptide homologous to amino acids 234 to 241 of human IgG
[17] = molecular target: the different subclasses of IgG
[18] = molecular target: transferrin, P02787
[19] = molecular target: whole human plasma
[20] = molecular target: α 1-antitrypsin, P01009
Sequence of α 1-antitrypsin, P01009 (P01009 whole entry, looked up): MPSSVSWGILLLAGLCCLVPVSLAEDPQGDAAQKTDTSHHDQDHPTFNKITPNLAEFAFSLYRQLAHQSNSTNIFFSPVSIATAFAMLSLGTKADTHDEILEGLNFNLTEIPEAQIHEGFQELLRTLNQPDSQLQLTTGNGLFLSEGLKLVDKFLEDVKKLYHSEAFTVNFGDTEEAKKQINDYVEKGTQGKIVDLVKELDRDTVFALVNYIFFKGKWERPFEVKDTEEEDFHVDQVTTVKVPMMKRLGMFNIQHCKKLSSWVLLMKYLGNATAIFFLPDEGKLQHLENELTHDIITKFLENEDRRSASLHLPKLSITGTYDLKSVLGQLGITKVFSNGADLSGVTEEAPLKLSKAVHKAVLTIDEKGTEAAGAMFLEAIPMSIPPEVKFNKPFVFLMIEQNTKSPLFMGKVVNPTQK

Sequence of fibronectin, P02751 (P02751 other isoform, or with tags, fused parts or gaps): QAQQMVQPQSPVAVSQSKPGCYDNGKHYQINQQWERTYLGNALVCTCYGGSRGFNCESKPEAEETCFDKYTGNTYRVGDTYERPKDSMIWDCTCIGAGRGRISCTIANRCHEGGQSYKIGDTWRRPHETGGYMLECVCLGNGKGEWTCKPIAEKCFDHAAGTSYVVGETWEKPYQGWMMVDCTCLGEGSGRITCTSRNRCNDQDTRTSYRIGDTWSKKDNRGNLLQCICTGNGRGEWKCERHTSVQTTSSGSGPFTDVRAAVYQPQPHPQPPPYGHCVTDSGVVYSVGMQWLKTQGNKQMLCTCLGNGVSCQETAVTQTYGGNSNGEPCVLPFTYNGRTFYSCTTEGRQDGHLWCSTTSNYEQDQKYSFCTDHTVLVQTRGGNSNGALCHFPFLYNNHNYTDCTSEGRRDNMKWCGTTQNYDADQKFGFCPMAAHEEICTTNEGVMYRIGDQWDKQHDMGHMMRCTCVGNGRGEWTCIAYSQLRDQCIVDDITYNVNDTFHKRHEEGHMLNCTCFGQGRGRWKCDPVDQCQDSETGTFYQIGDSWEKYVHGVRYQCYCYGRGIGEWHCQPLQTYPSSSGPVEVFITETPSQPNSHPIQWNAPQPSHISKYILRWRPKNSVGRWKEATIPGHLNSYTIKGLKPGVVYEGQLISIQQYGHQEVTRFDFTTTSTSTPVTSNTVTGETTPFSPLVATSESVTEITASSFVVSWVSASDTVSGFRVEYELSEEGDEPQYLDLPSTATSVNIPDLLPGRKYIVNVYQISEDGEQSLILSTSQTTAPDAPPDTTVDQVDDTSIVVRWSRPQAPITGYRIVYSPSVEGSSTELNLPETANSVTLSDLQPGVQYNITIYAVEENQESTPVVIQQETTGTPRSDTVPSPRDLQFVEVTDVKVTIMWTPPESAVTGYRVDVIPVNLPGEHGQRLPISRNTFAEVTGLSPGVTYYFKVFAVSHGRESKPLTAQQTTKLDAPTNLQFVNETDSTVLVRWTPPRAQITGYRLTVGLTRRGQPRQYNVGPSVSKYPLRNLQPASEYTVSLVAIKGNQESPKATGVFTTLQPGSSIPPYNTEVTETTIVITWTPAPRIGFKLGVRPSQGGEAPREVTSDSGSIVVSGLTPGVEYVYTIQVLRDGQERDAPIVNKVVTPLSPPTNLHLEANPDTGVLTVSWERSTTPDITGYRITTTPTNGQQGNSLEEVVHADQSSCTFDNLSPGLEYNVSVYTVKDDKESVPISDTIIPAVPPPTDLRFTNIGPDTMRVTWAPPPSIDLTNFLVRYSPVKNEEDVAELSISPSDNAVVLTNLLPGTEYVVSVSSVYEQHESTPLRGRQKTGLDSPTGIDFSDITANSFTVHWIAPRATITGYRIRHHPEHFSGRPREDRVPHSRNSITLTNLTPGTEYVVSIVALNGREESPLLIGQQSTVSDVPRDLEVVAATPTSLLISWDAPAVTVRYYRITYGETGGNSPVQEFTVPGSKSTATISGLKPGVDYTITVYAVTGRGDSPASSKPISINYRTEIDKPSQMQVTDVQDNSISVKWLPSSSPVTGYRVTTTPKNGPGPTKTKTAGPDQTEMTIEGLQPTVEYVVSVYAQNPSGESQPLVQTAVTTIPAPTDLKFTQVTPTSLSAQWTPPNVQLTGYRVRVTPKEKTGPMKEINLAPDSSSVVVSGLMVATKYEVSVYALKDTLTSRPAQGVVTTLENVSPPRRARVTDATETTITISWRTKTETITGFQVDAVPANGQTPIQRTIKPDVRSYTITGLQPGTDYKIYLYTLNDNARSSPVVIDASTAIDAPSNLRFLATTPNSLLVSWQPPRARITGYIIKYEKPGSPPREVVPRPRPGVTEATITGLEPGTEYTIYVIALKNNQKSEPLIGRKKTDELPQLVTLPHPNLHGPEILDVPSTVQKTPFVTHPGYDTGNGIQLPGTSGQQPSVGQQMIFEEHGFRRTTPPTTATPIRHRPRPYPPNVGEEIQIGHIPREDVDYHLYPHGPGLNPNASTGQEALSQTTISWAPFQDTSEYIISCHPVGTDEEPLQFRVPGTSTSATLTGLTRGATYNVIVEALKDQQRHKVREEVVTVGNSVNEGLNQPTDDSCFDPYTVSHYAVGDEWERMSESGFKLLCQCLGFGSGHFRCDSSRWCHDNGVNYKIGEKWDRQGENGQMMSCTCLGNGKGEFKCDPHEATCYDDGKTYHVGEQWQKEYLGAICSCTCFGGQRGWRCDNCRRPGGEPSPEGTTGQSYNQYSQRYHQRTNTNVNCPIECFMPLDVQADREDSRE
Sequence of lactoferrin, P02788 (P02788 20-710): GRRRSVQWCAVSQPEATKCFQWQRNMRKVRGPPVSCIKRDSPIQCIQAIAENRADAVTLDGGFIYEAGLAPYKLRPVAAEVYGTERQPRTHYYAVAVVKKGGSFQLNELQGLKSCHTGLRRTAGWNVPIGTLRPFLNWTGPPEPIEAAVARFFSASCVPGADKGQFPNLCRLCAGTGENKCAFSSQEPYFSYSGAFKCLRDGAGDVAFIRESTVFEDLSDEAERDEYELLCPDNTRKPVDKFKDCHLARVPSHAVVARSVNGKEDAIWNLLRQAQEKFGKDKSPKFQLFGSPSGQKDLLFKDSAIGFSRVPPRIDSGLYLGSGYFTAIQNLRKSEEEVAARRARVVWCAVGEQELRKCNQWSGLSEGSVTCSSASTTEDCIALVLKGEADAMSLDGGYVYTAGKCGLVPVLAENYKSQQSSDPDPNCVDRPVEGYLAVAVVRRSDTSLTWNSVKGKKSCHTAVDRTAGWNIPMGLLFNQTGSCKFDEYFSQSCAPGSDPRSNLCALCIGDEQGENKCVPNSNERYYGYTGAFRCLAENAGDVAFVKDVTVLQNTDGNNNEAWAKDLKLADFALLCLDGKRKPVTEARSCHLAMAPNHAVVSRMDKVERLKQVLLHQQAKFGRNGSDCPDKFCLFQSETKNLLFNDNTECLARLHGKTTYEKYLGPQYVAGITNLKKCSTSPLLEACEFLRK
Sequence of transferrin, P02787 (P02787 20-698): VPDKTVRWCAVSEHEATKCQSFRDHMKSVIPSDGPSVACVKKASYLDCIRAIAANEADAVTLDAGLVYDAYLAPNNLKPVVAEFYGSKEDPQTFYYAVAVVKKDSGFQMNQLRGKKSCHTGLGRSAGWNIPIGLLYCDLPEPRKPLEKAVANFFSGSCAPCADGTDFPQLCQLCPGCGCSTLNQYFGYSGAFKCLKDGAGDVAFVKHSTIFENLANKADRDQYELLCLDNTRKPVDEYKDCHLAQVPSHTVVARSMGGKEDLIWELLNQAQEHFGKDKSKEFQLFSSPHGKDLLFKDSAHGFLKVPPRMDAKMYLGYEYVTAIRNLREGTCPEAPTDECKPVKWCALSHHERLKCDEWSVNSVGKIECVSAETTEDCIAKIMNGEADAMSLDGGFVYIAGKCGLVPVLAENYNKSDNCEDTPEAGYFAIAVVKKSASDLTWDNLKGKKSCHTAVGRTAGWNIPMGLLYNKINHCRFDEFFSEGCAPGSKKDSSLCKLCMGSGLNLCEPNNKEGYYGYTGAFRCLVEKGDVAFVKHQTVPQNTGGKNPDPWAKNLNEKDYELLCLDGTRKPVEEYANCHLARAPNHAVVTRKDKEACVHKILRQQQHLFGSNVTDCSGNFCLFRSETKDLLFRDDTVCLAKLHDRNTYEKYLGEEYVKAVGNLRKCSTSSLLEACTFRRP

B1: IdeS (Immunoglobulin G-degrading enzyme of S. pyogenes), purified from culture supernatant of S. pyogenes strain AP1 (protein)
chain: DSFSANQEIRYSEVTPYHVTSVWTKGVTPPANFTQGEDVFHAPYVANQGWYDITKTFNGKDDLLCGAATAGNMLHWWFDQNKDQIKRYLEEHPEKQKINFNGEQMFDVKEAIDTKNHQLDSKLFEYFKEKAFPYLSTKHLGVFPDHVIDMFINGYRLSLTNHGPTPVKEGSKDPRGGIFDAVFTRGDQSKLLTSRHDFKEKNLKEISDLIKKELTEGKALGLSHTYANVRINHVINLWGADFDSNGNLKAIYVTDSDSNASIGMKKYFVGVNSAGKVAISAKEIKEDNIGAQVLGLFTLSTGQDSWNQTN
- cleavage [1]: a Fc-fragment generated by papain cleavage, including 12 amino acids of the hinge region is cleaved by IdeS
- cleavage products [2]: No cleavage products could be detected
- cleavage of the peptide [3]: Neither was the synthetic peptide Z-LVG-CHN2, which inhibits IdeS activity, cleaved by excess IdeS
- cleavage products [4]: No cleavage products could be detected
- degradation of the peptide [5]: did not reveal any degradation of the peptides
- cleavage products [6]: No cleavage products could be detected
- cleavage products [7]: No cleavage products could be observed
- cleavage products [8]: No cleavage products could be observed
- cleavage products [9]: No cleavage products could be observed
- cleavage products [10]: No cleavage products could be detected
- cleavage products [11]: No cleavage products could be detected
- cleavage products [12]: No cleavage products could be detected
- cleavage products [13]: No cleavage products could be detected
- cleavage products [14]: No cleavage products could be detected
- cleavage products [15]: No cleavage products could be detected
- degradation of the peptide [16]: did not reveal any degradation of the peptides
- IdeS digestion [17]: all were susceptible for IdeS digestion
- cleavage products [18]: No cleavage products could be detected
- cleavage products [19]: No cleavage products could be detected
- cleavage products [20]: No cleavage products could be detected
